Data: paper PMC11381518, “Human cell surface-AAV interactomes identify LRP6 as blood-brain barrier transcytosis receptor and immune cytokine IL3 as AAV9 binder” (Nature Communications, 2024)

B1: AAV9-X1.1 capsid (complex, adeno-associated virus 9, UniProt Q6JC40 1-736, looked up)
chain: MAADGYLPDWLEDNLSEGIREWWALKPGAPQPKANQQHQDNARGLVLPGYKYLGPGNGLDKGEPVNAADAAALEHDKAYDQQLKAGDNPYLKYNHADAEFQERLKEDTSFGGNLGRAVFQAKKRLLEPLGLVEEAAKTAPGKKRPVEQSPQEPDSSAGIGKSGAQPAKKRLNFGQTGDTESVPDPQPIGEPPAAPSGVGSLTMASGGGAPVADNNEGADGVGSSSGNWHCDSQWLGDRVITTSTRTWALPTYNNHLYKQISNSTSGGSSNDNAYFGYSTPWGYFDFNRFHCHFSPRDWQRLINNNWGFRPKRLNFKLFNIQVKEVTDNNGVKTIANNLTSTVQVFTDSDYQLPYVLGSAHEGCLPPFPADVFMIPQYGYLTLNDGSQAVGRSSFYCLEYFPSQMLRTGNNFQFSYEFENVPFHSSYAHSQSLDRLMNPLIDQYLYYLSKTIDGAATKNQTLKFSVAGPSNMAVQGRNYIPGPSYRQQRVSTTVTQNNNSEFAWPGASSWALNGRNSLMNPGPAMASHKEGEDRFFPLSGSLIFGKQGTGRDNVDADKVMITNEEEIKTTNPVATESYGQVATNHQSAQGNNTRSVAQAQTGWVQNQGILPGMVWQDRDVYLQGPIWAKIPHTDGNFHPSPLMGGFGMKHPPPQILIKNTPVPADPPTAFNKDKLNSFITQYSTGQVSVEIEWELQKENSKRWNPEIQYTSNYYKSNNVEFAVNTEGVYSEPRPIGTRYLTRNL
notes: AAV9 capsid protein VP1 with changes in VR-IV and VR-VIII; numbers count on VP1; also called AAV-X1.1; source: HEK293 cells, triple transfected, purified (iodixanol gradient); copies: 60
B2: AAV.CAP-Mac capsid (complex, adeno-associated virus 9, UniProt Q6JC40 1-736, looked up)
chain: MAADGYLPDWLEDNLSEGIREWWALKPGAPQPKANQQHQDNARGLVLPGYKYLGPGNGLDKGEPVNAADAAALEHDKAYDQQLKAGDNPYLKYNHADAEFQERLKEDTSFGGNLGRAVFQAKKRLLEPLGLVEEAAKTAPGKKRPVEQSPQEPDSSAGIGKSGAQPAKKRLNFGQTGDTESVPDPQPIGEPPAAPSGVGSLTMASGGGAPVADNNEGADGVGSSSGNWHCDSQWLGDRVITTSTRTWALPTYNNHLYKQISNSTSGGSSNDNAYFGYSTPWGYFDFNRFHCHFSPRDWQRLINNNWGFRPKRLNFKLFNIQVKEVTDNNGVKTIANNLTSTVQVFTDSDYQLPYVLGSAHEGCLPPFPADVFMIPQYGYLTLNDGSQAVGRSSFYCLEYFPSQMLRTGNNFQFSYEFENVPFHSSYAHSQSLDRLMNPLIDQYLYYLSKTINGSGQNQQTLKFSVAGPSNMAVQGRNYIPGPSYRQQRVSTTVTQNNNSEFAWPGASSWALNGRNSLMNPGPAMASHKEGEDRFFPLSGSLIFGKQGTGRDNVDADKVMITNEEEIKTTNPVATESYGQVATNHQSAQLNTTKPIAQAQTGWVQNQGILPGMVWQDRDVYLQGPIWAKIPHTDGNFHPSPLMGGFGMKHPPPQILIKNTPVPADPPTAFNKDKLNSFITQYSTGQVSVEIEWELQKENSKRWNPEIQYTSNYYKSNNVEFAVNTEGVYSEPRPIGTRYLTRNL
notes: AAV9 capsid protein VP1 with an insertion in VR-VIII; numbers count on VP1; source: HEK293 cells, triple transfected, purified (iodixanol gradient); copies: 60
B3: mouse LRP6-E1E2 (N-half of the extracellular domain, AA 20-628) tagged with mouse IgG2a Fc (Fc fusion, UniProt O88572 20-628, looked up)
chain: APLLLYANRRDLRLVDATNGKENATIVVGGLEDAAAVDFVFGHGLIYWSDVSEEAIKRTEFNKSESVQNVVVSGLLSPDGLACDWLGEKLYWTDSETNRIEVSNLDGSLRKVLFWQELDQPRAIALDPSSGFMYWTDWGEVPKIERAGMDGSSRFVIINTEIYWPNGLTLDYQERKLYWADAKLNFIHKSNLDGTNRQAVVKGSLPHPFALTLFEDTLYWTDWNTHSILACNKYTGEGLREIHSNIFSPMDIHAFSQQRQPNATNPCGIDNGGCSHLCLMSPVKPFYQCACPTGVKLMENGKTCKDGATELLLLARRTDLRRISLDTPDFTDIVLQLEDIRHAIAIDYDPVEGYIYWTDDEVRAIRRSFIDGSGSQFVVTAQIAHPDGIAVDWVARNLYWTDTGTDRIEVTRLNGTMRKILISEDLEEPRAIVLDPMVGYMYWTDWGEIPKIERAALDGSDRVVLVNTSLGWPNGLALDYDEGTIYWGDAKTDKIEVMNTDGTGRRVLVEDKIPHIFGFTLLGDYVYWTDWQRRSIERVHKRSAEREVIIDQLPDLMGLKATSVHRVIGSNPCAEDNGGCSHLCLYRPQGLRCACPIGFELIGDMKTCI
notes: mouse LRP6, YWTD domains 1 and 2 (E1E2), AA 20-628; source: bought: Bio-Techne

Tests used:
Settings in all cases: both partners purified
[1] = target: T1, mouse LRP6 (AA 20-1366) with a 6xHis tag (mouse, UniProt O88572 20-1366); assay: pull-down; prey AAVs mixed with His-tagged bait protein and Ni-NTA resin in DPBS with 20 mM imidazole, 1 h at 4 °C; eluate analysed by Western blot with anti-VP1/VP2/VP3 and anti-6xHis
T1 construct: mouse LRP6 extracellular domain, AA 20-1366; also called full length extracellular domain of mouse LRP6; source: bought: Bio-Techne
T1 sequence (looked up): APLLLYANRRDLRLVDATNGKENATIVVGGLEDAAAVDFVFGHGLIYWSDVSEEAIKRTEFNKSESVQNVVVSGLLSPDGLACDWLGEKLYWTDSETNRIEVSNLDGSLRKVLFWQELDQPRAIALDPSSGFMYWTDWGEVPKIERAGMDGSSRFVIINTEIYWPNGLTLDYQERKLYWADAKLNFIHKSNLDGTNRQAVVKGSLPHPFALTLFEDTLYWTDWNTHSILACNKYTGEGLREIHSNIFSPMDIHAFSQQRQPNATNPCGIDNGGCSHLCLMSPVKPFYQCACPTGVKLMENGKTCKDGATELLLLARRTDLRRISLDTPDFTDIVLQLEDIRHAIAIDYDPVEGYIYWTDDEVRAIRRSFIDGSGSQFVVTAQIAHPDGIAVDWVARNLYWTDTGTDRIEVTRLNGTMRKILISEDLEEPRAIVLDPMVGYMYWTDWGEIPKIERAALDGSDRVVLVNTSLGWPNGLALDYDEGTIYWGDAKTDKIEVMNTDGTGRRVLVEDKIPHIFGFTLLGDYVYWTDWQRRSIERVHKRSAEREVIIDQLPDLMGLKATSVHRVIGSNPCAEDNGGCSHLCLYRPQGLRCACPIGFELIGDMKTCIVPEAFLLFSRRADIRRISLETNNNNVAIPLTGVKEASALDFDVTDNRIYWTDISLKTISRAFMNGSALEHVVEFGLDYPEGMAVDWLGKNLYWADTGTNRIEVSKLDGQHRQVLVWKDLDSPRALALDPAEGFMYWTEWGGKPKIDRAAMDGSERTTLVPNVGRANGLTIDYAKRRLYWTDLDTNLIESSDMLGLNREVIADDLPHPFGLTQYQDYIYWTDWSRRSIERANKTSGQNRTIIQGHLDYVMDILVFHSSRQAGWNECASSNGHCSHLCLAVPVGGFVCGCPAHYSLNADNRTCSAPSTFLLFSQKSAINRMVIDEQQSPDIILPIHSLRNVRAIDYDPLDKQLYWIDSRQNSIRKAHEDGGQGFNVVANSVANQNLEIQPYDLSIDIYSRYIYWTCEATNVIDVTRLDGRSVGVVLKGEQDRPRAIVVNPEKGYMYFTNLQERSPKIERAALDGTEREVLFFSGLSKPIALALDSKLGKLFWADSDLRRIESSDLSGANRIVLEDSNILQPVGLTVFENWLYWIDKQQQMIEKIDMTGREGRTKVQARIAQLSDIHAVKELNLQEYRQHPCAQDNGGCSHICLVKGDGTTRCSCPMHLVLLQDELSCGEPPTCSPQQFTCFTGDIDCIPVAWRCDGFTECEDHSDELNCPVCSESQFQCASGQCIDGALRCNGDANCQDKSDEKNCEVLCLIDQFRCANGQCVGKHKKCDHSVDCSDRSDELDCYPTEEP

[2] = target: T2, human LRP6 (AA 20-1368) tagged with human IgG1 Fc (human, UniProt O75581 20-1368); assay: SPR; Sierra SPR-32, protein A sensor chip; human LRP6-Fc captured at 1200-1500 RU in HBS-EP+ (Fig. 4b); AAV injected at 10 µL per min for 240 s, 600 s dissociation; AAV from 2.4 × 10^12 v.g. per mL in twofold dilutions; apparent affinity, avid format
T2 construct: human LRP6, AA 20-1368; the methods call it full-length, the results the extracellular domain; also called human LRP6-Fc; human LRP6 extracellular domain; source: bought: Bio-Techne
T2 sequence (looked up): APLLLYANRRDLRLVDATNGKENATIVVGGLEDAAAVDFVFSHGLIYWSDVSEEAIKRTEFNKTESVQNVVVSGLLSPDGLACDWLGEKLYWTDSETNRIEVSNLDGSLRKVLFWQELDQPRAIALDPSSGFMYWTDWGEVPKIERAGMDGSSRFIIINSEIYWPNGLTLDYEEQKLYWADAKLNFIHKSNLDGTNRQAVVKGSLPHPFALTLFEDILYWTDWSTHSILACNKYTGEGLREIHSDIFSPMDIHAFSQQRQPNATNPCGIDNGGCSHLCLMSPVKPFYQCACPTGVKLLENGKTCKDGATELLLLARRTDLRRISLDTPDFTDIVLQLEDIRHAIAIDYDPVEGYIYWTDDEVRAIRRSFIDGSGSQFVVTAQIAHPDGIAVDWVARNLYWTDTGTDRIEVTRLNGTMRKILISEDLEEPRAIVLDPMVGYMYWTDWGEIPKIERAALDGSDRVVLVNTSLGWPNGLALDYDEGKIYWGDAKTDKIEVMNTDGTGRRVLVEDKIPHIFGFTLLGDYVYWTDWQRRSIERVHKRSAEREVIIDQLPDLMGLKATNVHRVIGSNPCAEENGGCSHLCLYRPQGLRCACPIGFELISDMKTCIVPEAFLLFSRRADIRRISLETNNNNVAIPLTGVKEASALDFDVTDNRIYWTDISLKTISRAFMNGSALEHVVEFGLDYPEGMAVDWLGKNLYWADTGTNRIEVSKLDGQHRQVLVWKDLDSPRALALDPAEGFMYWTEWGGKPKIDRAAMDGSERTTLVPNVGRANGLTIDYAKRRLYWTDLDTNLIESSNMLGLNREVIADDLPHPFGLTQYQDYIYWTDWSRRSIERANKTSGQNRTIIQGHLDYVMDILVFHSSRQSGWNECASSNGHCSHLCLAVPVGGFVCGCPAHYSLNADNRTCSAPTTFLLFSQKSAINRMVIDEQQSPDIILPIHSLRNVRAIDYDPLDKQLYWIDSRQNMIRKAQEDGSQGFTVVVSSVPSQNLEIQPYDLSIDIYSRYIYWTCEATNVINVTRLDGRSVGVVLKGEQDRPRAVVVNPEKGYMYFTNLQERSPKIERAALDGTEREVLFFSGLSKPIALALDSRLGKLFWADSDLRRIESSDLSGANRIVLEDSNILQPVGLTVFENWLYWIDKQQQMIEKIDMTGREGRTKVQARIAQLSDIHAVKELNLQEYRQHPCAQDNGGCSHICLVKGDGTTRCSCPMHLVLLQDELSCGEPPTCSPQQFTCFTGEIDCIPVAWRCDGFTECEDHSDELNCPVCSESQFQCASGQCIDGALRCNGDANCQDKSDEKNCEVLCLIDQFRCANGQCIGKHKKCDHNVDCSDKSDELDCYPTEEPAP

AAV-BI30 capsid = target: T3, AAV-BI30 capsid (adeno-associated virus 9, UniProt Q6JC40 1-736, VR VIII AA587-590 AQ - - - - - - - AQ to AQNNSTRGGAQ); assay: SPR; Sierra SPR-32, protein A sensor chip; Fc-fusion protein captured at 600-800 RU in HBS-EP+; AAV injected at 10 µL per min for 240 s, 600 s dissociation; AAV from 2.4 × 10^12 v.g. per mL in twofold dilutions; avid format
T3 construct: AAV9 capsid protein VP1 with an insertion in VR-VIII; numbers count on VP1; source: HEK293 cells, triple transfected, purified (iodixanol gradient); copies: 60

AAV9-X1.1 capsid = target: B1; assay: as above
AAV.CAP-Mac capsid = target: B2; assay: as above

| Binder | binding result [1] | binding result [2] | binding result (AAV-BI30 capsid) | binding result (AAV9-X1.1 capsid) | binding result (AAV.CAP-Mac capsid) |
| --- | --- | --- | --- | --- | --- |
| B1 | binds | binds |  |  |  |
| B2 | binds | binds |  |  |  |
| B3 |  |  | binds | binds | binds |
